Results reported in the supplement of paper PMC11246515.
± gives the standard deviation of the averaged measurements.

Assay: total protein half-life in vivo (active degradation + dilution); higher = more stable protein
[1] = E. coli NCM3722 delta-clpP delta-lon delta-hslV, growth: N-lim chemostat, doubling time 6 h
[2] = E. coli NCM3722 delta-hslV, growth: N-lim chemostat, doubling time 6 h
[3] = E. coli NCM3722 delta-lon, growth: N-lim chemostat, doubling time 6 h
[4] = E. coli NCM3722 delta-smpB, growth: N-lim chemostat, doubling time 6 h
[5] = wild type E. coli NCM3722, growth: C-lim chemostat, doubling time 3 h
[6] = wild type E. coli NCM3722, growth: C-lim chemostat, doubling time 12 h
[7] = wild type E. coli NCM3722, growth: N-lim chemostat, doubling time 6 h
[8] = wild type E. coli NCM3722, growth: N-lim chemostat, doubling time 12 h
[9] = wild type E. coli NCM3722, growth: P-lim chemostat, doubling time 6 h
[10] = wild type E. coli NCM3722, growth: P-lim chemostat, doubling time 12 h
[11] = wild type E. coli NCM3722, growth: C-lim chemostat, doubling time 6 h
[12] = E. coli NCM3722 delta-clpP, growth: N-lim chemostat, doubling time 6 h

MTIRSYKNLNLVRANIETESRQFIENKNYSIQSIGPMPGSRAGLRVVFTRPGVNLATVDIFYNGDGSTTIQYLTGANRSLGQELADHLFETINPAEFEQVNMVLQGFVETSVLPVLELSADESHIEFREHSRNAHTVVWKIISTSYQDELTVSLHITTGKLQIQGRPLSCYRVFTFNLAALLDLQGLEKVLIRQEDGKANIVQQEVARTYLQTVMADAYPHLHVTAEKLLVSGLCVKLAAPDLPDYCMLLYPELRTIEGVLKSKMSGLGMPVQQPAGFGTYFDKPAAHYILKPQFAATLRPEQINIISTAYTFFNVERHSLFHMETVVDASRMISDMARLMGKATRAWGIIKDLYIV
total protein half-life in vivo [1]: 5.71 h
total protein half-life in vivo [2]: 1.859 ± 0.0024 h
total protein half-life in vivo [3]: 1.2 h
total protein half-life in vivo [4]: 0.954 h
total protein half-life in vivo [5]: 1.22 h
total protein half-life in vivo [6]: 3.37 h
total protein half-life in vivo [7]: 1.41 h
total protein half-life in vivo [8]: 4.02 ± 2.5 h
total protein half-life in vivo [9]: 1.17 h
total protein half-life in vivo [10]: 3.31 ± 1.4 h

MSQLCPCGSAVEYSLCCHPYVSGEKVAPDPEHLMRSRYCAFVMQDADYLIKTWHPSCGAAALRAELMAGFAHTEWLGLTVFEHCWQDADNIGFVSFVARFTEGGKTGAIIERSRFLKENGQWYYIDGTRPQFGRNDPCPCGSGKKFKKCCGQ
total protein half-life in vivo [1]: 5.73 ± 0.5 h
total protein half-life in vivo [2]: > 8 h
total protein half-life in vivo [4]: 5.47 h
total protein half-life in vivo [11]: 6.31 h
total protein half-life in vivo [7]: 5.43 ± 0.68 h
total protein half-life in vivo [8]: 8.52 ± 0.57 h
total protein half-life in vivo [9]: 5.3 ± 0.3 h

MVTLYGIKNCDTIKKARRWLEANNIDYRFHDYRVDGLDSELLNDFINELGWEALLNTRGTTWRKLDETTRNKITDAASAAALMTEMPAIIKRPLLCVPGKPMLLGFSDSSYQQFFHEV
total protein half-life in vivo [1]: 5.94 ± 0.23 h
total protein half-life in vivo [12]: 5.95 ± 0.25 h
total protein half-life in vivo [4]: 5.87 ± 1.3 h
total protein half-life in vivo [5]: 3.07 ± 0.16 h
total protein half-life in vivo [11]: 6.1 ± 0.65 h
total protein half-life in vivo [6]: 9.79 ± 1.3 h
total protein half-life in vivo [7]: > 8 h
total protein half-life in vivo [8]: 8.47 h
total protein half-life in vivo [9]: 6.07 h
total protein half-life in vivo [10]: 11.3 ± 0.18 h

MTEFTTLLQQGNAWFFIPSAILLGALHGLEPGHSKTMMAAFIIAIKGTIKQAVMLGLAATISHTAVVWLIAFGGMVISKRFTAQSAEPWLQLISAVIIISTAFWMFWRTWRGERNWLENMHGHDYEHHHHDHEHHHDHGHHHHHEHGEYQDAHARAHANDIKRRFDGREVTNWQILLFGLTGGLIPCPAAITVLLICIQLKALTLGATLVVSFSIGLALTLVTVGVGAAISVQQVAKRWSGFNTLAKRAPYFSSLLIGLVGVYMGVHGFMGIMR
total protein half-life in vivo [2]: 4.77 h
total protein half-life in vivo [3]: 4.13 h
total protein half-life in vivo [4]: 5.43 ± 0.75 h
total protein half-life in vivo [5]: > 4 h
total protein half-life in vivo [11]: 5.864 ± 0.02 h
total protein half-life in vivo [6]: 10.8 h
total protein half-life in vivo [9]: 5.97 h
total protein half-life in vivo [10]: 11.6 h

MEQAHTQLIAQLNERILAADNTPLYIKFAETVKNAVRSGVLEHGNILPGERDLSQLTGVSRITVRKAMQALEEEGVVTRSRGYGTQINNIFEYSLKEARGFSQQVVLRGKKPDTLWVNKRVVKCPEEVAQQLAVEAGSDVFLLKRIRYVDEEAVSIEESWVPAHLIHDVDAIGISLYDYFRSQHIYPQRTRSRVSARMPDAEFQSHIQLDSKIPVLVIKQVALDQQQRPIEYSISHCRSDLYVFVCEE [P0ACM5]
total protein half-life in vivo [1]: 5.72 ± 0.0036 h
total protein half-life in vivo [2]: 4.14 ± 0.2 h
total protein half-life in vivo [3]: 4.55 ± 0.12 h
total protein half-life in vivo [4]: 3.91 ± 0.15 h
total protein half-life in vivo [5]: 2.75 ± 0.084 h
total protein half-life in vivo [11]: 4.84 ± 0.37 h
total protein half-life in vivo [6]: 8.6 ± 0.18 h
total protein half-life in vivo [7]: 4.04 ± 0.17 h
total protein half-life in vivo [8]: 6.99 ± 0.2 h
total protein half-life in vivo [9]: 4.28 ± 0.053 h
total protein half-life in vivo [10]: 7.99 ± 0.19 h

MGSQELQRKLGFWAVLAIAVGTTVGSGIFVSVGEVAKAAGTPWLTVLAFVIGGLIVIPQMCVYAELSTAYPENGADYVYLKNAGSRPLAFLSGWASFWANDAPSLSIMALAIVSNLGFLTPIDPLLGKFIAAGLIIAFMLLHLRSVEGGAAFQTLITIAKIIPFTIVIGLGIFWFKAENFAAPTTTAIGATGSFMALLAGISATSWSYTGMASICYMTGEIKNPGKTMPRALIGSCLLVLVLYTLLALVISGLMPFDKLANSETPISDALTWIPALGSTAGIFVAITAMIVILGSLSSCVMYQPRLEYAMAKDNLFFKCFGHVHPKYNTPDVSIILQGALGIFFIFVSDLTSLLGYFTLVMCFKNTLTFGSIIWCRKRDDYKPLWRTPAFGLMTTLAIASSLILVASTFVWAPIPGLICAVIVIATGLPAYAFWAKRSRQLNALS
total protein half-life in vivo [5]: 3.26 h

MNNIWWQTKGQGNVHLVLLHGWGLNAEVWRCIDEELSSHFTLHLVDLPGFGRSRGFGALSLADMAEAVLQQAPDKAIWLGWSLGGLVASQIALTHPERVQALVTVASSPCFSARDEWPGIKPDVLAGFQQQLSDDFQRTVERFLALQTMGTETARQDARALKKTVLALPMPEVDVLNGGLEILKTVDLRQPLQNVSMPFLRLYGYLDGLVPRKVVPMLDKLWPHSESYIFAKAAHAPFISHPAEFCHLLVALKQRV
total protein half-life in vivo [1]: 3.79 ± 0.6 h
total protein half-life in vivo [12]: 3.5 ± 0.15 h
total protein half-life in vivo [2]: 3.33 h
total protein half-life in vivo [3]: 3.66 ± 0.1 h
total protein half-life in vivo [4]: 4.85 ± 1.8 h
total protein half-life in vivo [5]: 3.39 ± 0.45 h
total protein half-life in vivo [11]: 5.41 ± 0.43 h
total protein half-life in vivo [6]: 12.1 ± 4.7 h
total protein half-life in vivo [7]: 3.63 ± 0.25 h
total protein half-life in vivo [8]: 6.93 ± 1.4 h
total protein half-life in vivo [9]: 5.93 ± 0.25 h

MLKTISPLISPELLKVLAEMGHGDEIIFSDAHFPAHSMGPQVIRADGLLVSDLLQAIIPLFELDSYAPPLVMMAAVEGDTLDPEVERRYRNALSLQAPCPDIIRINRFAFYERAQKAFAIVITGERAKYGNILLKKGVTP [P0AEN8]
total protein half-life in vivo [1]: 6.09 ± 0.27 h
total protein half-life in vivo [12]: 6.25 ± 0.67 h
total protein half-life in vivo [2]: 6.67 ± 1.6 h
total protein half-life in vivo [4]: 5.51 ± 0.094 h
total protein half-life in vivo [5]: 3.05 ± 0.092 h
total protein half-life in vivo [11]: 6.7 ± 0.48 h
total protein half-life in vivo [6]: 13.2 ± 0.83 h
total protein half-life in vivo [7]: 5.36 ± 0.38 h
total protein half-life in vivo [8]: 10.4 ± 1.1 h
total protein half-life in vivo [9]: 5.89 ± 0.63 h
total protein half-life in vivo [10]: 12.3 ± 0.71 h

MAFSQAVSGLNAAATNLDVIGNNIANSATYGFKSGTASFADMFAGSKVGLGVKVAGITQDFTDGTTTNTGRGLDVAISQNGFFRLVDSNGSVFYSRNGQFKLDENRNLVNMQGLQLTGYPATGTPPTIQQGANPTNISIPNTLMAAKTTTTASMQINLNSSDPLPTVTPFSASNADSYNKKGSVTVFDSQGNAHDMSVYFVKTGDNNWQVYTQDSSDPNSIAKTATTLEFNANGTLVDGAMANNIATGAINGAEPATFSLSFLNSMQQNTGANNIVATTQNGYKPGDLVSYQINDDGTVVGNYSNEQTQLLGQIVLANFANNEGLASEGDNVWSATQSSGVALLGTAGTGNFGTLTNGALEASNVDLSKELVNMIVAQRNYQSNAQTIKTQDQILNTLVNLR
total protein half-life in vivo [1]: 3.24 ± 0.9 h
total protein half-life in vivo [12]: 7.78 h
total protein half-life in vivo [4]: > 8 h
total protein half-life in vivo [5]: 1.2 ± 0.066 h
total protein half-life in vivo [11]: 2.23 ± 0.38 h
total protein half-life in vivo [6]: 3.51 ± 0.74 h
